The values below come from patent US20260207766A1 (Bristol-Myers Squibb, published 2026).

Usually EC50 stands for the concentration that produces a half-maximal response. Read a high EC50 as a less potent agent. Usually Kd stands for the equilibrium constant for the complex coming apart. For orientation: koff means the rate constant with which the complex falls apart. What is called kon is a measure of how fast the partners come together.

Experiment [1] has as its target T1, human CEACAM7 (R&D Systems catalog #9010-CM-050) (human, UniProt Q14002 36-242, limits assumed).
T1 sequence (looked up): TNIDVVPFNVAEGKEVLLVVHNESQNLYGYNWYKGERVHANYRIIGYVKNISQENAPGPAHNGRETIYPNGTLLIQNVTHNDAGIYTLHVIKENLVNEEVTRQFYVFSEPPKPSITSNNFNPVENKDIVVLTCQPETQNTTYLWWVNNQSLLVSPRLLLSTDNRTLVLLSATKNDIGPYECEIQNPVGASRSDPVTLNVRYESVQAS
The experiment is described as follows: SPR.

Experiment [2] deals with T2, human CEACAM8 (R&D Systems catalog #9639-CM-050) (human, UniProt P31997 35-320, limits assumed).
T2 sequence (looked up): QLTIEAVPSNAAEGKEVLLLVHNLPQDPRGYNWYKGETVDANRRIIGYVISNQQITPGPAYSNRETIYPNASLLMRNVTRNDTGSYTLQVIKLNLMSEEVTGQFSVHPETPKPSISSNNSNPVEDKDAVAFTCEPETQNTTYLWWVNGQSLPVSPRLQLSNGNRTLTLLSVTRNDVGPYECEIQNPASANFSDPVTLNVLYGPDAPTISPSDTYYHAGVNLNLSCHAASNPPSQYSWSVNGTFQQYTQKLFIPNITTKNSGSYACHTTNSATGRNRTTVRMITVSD
The experiment is described as follows: SPR. (SPR reads the build-up and loss of mass on a sensor chip optically.)

For experiment [3], the target named is T3, human CEACAM1 on CHO-S cells (human, UniProt P13688 35-526).
T3 construct: whole, on cells; also called CHO-S-huCEACAM1
T3 sequence (looked up): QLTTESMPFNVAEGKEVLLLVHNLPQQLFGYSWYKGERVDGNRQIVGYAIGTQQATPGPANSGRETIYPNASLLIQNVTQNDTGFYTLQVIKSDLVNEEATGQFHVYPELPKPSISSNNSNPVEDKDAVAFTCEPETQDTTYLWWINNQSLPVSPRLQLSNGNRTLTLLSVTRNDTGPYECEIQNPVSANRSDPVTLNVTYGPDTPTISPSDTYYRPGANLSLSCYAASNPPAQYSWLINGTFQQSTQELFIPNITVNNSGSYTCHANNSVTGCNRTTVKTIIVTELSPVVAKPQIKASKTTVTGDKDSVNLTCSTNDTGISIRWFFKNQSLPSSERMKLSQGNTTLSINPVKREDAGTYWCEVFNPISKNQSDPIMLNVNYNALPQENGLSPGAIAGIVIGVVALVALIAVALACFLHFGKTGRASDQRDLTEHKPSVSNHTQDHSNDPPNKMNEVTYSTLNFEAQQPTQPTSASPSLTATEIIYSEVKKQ
The experiment is described as follows: flow cytometry on CHO-S (CEACAM-1) cells. A general note: In flow cytometry, cells or beads pass a laser one at a time.

Experiment [4] addresses T4, human CEACAM5 on cells (human, UniProt P06731 35-685).
T4 sequence: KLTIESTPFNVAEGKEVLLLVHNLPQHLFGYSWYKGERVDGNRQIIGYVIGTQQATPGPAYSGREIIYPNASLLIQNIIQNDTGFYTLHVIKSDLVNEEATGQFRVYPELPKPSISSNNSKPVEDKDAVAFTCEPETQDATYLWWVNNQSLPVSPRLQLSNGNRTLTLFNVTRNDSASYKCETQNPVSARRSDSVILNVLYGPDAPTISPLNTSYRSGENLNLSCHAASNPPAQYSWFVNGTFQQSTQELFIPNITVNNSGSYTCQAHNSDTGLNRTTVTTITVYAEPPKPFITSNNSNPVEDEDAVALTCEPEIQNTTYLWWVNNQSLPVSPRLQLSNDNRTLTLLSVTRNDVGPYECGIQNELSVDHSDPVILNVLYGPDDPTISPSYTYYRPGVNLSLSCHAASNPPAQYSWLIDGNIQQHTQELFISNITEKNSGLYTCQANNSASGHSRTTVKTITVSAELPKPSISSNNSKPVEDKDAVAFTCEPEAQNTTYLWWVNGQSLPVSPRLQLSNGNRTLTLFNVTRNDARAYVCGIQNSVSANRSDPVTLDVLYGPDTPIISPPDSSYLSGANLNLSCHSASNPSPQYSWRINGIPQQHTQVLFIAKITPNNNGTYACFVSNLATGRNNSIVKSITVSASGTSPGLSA
The experiment is described as follows: cell-based or functional assay.

Experiment [5] has as its target T5, human CEACAM6 on HCT116 cells (human, UniProt P40199 35-320).
T5 construct: whole, on cells; also called HCT116-huCEACAM6
T5 sequence (looked up): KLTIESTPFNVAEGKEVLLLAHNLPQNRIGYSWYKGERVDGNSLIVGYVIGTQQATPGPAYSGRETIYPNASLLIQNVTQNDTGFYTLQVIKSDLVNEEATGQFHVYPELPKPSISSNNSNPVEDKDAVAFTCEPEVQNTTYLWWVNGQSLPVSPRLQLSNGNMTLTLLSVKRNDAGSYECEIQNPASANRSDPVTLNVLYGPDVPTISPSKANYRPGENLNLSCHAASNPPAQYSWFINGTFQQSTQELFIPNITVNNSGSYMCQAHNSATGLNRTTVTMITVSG
Briefly: flow cytometry on HCT-116 (CEACAM-6) cells.

For experiment [6], the target named is T4, human CEACAM5 on cells. Briefly: FACS on MKN45 cells.
Experiment [7] concerns the target T4, human CEACAM5 on cells. The experiment is described as follows: FACS on LS174T cells.
Experiment [8] addresses T4, human CEACAM5 on cells. The experiment is described as follows: FACS on BxPC3 cells.
In experiment [9] the target is T6, full-length human CEACAM5 (recombinant, internally generated) (human, UniProt P06731 35-685, limits assumed).
T6 construct: Printed only as 'full-length'; also called Full-length huCEACAM5; biotinylated human CEACAM5
T6 sequence: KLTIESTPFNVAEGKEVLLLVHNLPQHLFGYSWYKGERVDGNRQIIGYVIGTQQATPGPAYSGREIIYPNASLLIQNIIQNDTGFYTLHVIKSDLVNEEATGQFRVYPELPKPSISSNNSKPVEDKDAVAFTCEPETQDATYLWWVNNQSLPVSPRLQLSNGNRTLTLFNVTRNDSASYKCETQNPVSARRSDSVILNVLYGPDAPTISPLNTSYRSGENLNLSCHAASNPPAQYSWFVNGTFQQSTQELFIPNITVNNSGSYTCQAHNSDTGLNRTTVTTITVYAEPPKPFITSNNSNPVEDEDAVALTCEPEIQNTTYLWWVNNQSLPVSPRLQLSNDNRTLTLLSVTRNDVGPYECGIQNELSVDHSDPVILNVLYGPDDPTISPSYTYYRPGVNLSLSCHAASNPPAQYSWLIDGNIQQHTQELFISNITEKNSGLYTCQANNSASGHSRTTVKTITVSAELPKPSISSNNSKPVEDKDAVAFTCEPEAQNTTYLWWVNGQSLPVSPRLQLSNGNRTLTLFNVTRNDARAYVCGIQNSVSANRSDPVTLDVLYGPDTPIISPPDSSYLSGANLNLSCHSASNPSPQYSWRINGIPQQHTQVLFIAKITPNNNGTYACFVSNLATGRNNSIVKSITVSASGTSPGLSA
Briefly: SPR Biacore, mAb captured on anti-human Fc, full-length antigen analyte, 1:1 fit. An excerpt:
The BIACORE® instrument was primed with 1×HBSP+ running buffer (Cytiva catalog no. BR100671). The CM5 chip (Cytiva catalog no. 29149604) was equilibrated to room temperature, and the BIACORE® instrument was re-primed. A human antibody Fc capture kit (Cytiva catalog no. 29234600) was utilized for this analysis. The human antibody Fc capture reagent was immobilized to both flow cells in all 8 flow channels of the CM5 chip via amine-coupling using the following conditions. Immobilization was performed at a temperature of 25° C. The anti-human Fc capture reagent was diluted to a concentration of 25 μg/mL in acetate pH5 buffer. The chip surface was activated by injecting a mixture of 1-ethyl-3-(-3-dimethylaminopropyl) carbodiimide hydrochloride (EDC) and N-hydroxy succinimide (NHS) for 420 seconds at a rate of 10 microliters per minute (uL/min). A concentration (25 ug/mL) of anti-human Fc capture reagent was then injected on the surface for 420 seconds at a rate of 10 uL/min. The remaining chip surface was blocked by injecting ethanolamine for 420 seconds at a rate of 10 uL/min.
The SPR kinetics against full-length human and cyno CEACAM5 were set up as follows. The antibody capture was performed by diluting the antibodies to a concentration of 10 nM in HBSP+ buffer. The 10 nM mAbs were captured for 20 seconds at 5 uL/min to achieve capture levels of approximately 100 RU. […] The association rate was 180 seconds at 30 uL/min. The dissociation rate was 600 seconds at 30 uL/min. Regeneration was performed using two injections of 3M magnesium chloride MgCl₂ for 30 seconds at 30 uL/min. A data fit was performed using a 1:1 binding model with global Rmax. Rmax reflects the maximal response when all ligand is occupied.

For experiment [10], the target named is T7, 6xHis-A3-B3 huCEACAM5 (human, UniProt P06731 501-685, N-linked glycans (seven predicted sites)).
T7 construct: For cryo-EM it was expressed in Expi293F GnTI- cells; also called hCEACAM5-A3-B3 construct; human CEACAM5 A3-B3 domain protein
T7 sequence: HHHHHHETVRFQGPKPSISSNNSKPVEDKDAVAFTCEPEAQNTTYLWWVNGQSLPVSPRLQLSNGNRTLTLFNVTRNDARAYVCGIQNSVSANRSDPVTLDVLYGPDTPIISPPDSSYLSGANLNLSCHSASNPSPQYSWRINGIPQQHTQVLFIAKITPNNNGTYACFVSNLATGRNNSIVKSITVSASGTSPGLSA
Briefly: SPR Biacore 8K 37C, mAb captured on anti-human Fc, antigen analyte, 1:1 Langmuir fit.

For experiment [11], the target named is T3, human CEACAM1 on CHO-S cells. Briefly: flow cytometry, CHO-S cells overexpressing human CEACAM1.
Experiment [12] addresses T4, human CEACAM5 on cells. The experiment is described as follows: cell binding, MKN45 cells.
Experiment [13] addresses T7, 6xHis-A3-B3 huCEACAM5. The experiment is described as follows: cryo-EM of CEACAM5 A3-B3 with both Fabs. The protocol:
Below is a description of the different steps and methods that were performed.
After the incubation period, 50 μl of complexing reaction solution was passed through a Bio-Spin 30 Size-exclusion chromatography column (30 kDa MWCO, BioRad) to remove any contaminants and Apo-CEACAM5. Prior to use, Bio-Spin 30 columns were equilibrated with 1×PBS, and samples were applied according to the manufacturer's protocol.

B1: MBP003 (antibody, V domains shown)
VH: QVQLVESGGGVVQPGRSLRLSCAASGITFSSHGMHWVRQAPGKGLEWVTFISYDGSYKSYVDSVKGRFTISRDNSKNTLYLQMNSLRAEDTAVYYCATGLTGTGAFDIWGQGTMVTVSS
VL: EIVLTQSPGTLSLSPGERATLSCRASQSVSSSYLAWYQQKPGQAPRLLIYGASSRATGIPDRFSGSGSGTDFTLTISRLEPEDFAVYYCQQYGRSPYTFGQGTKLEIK
notes: also called hIgG1 form of MBP004
With B1, the binding result in experiment [1] is recorded as “no binding”; in experiment [2], “no binding”; in experiment [3] it was “no binding (tested: 300 nM)”; in experiment [5] it was “no binding (tested: 300 nM)”. In the experiment with human CEACAM5 on cells [4], the “Ls174T 5-day cytotoxicity (AUC), antibody conjugated to Compound A'” value is 18500. Moreover, the “MKN45 5-day cytotoxicity (AUC), antibody conjugated to Compound A'” value with human CEACAM5 on cells [4] turned out to be 24400. In addition, the EC50 with human CEACAM5 on cells [6] came to 2.4 nM; with human CEACAM5 on cells [7], 1.7 nM; with human CEACAM5 on cells [8], 1.9 nM. The Kd in experiment [9] is 23.4 nM. In experiment [9], the koff amounted to 0.000982 s⁻¹. The kon in experiment [9] turned out to be 42000 M⁻¹ s⁻¹.

B2: MBN001 (antibody, V domains shown)
VH: QVQLVETGGGVVQPGRSLRLSCAASGITFSSHGMHWVRQSPGKGLEWVTFISYDGSYKSYVDSVKGRFAISRDNSKNTLYLQMNSLRPEDTAVYYCATGLTGTGAFDIWGQGTMVTVSS
VL: not shown
notes: also called mAb MBN001; MBN001 parent
As for B2, the Kd with 6xHis-A3-B3 huCEACAM5 [10] was 129 nM. Besides, the binding result in experiment [11] is recorded as “no binding”; in [5], “no binding (tested: 300 nM)”. For the same molecule, the EC50 in the experiment with human CEACAM5 on cells [12] was 33.8 nM; with human CEACAM5 on cells [6], 2.2 nM; in the experiment with human CEACAM5 on cells [7], 1.7 nM; in the experiment with human CEACAM5 on cells [8], 1.8 nM.

B3: MBP002 (antibody, IgG1, V domains shown)
VH: QVQLVESGGGVVQPGRSLRLSCAASGITFSSHGMHWVRQAPGKGLEWVTFISYDGSYKSYVDSVKGRFTISRDNSKNTLYLQMNSLRAEDTAVYYCATGLTGTNALDIWGQGTMVTVSS
VL: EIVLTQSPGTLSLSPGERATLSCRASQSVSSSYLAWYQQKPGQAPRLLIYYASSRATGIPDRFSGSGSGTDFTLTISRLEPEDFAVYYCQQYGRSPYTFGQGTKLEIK
notes: also called hIgG1 form of MBP008
As to B3, the binding result in experiment [1] is “no binding”; in experiment [2] it was “no binding”; in experiment [3] it was “no binding (tested: 300 nM)”; in [5] it was “no binding (tested: 300 nM)”. Further, the “Ls174T 5-day cytotoxicity (AUC), antibody conjugated to Compound A'” value with human CEACAM5 on cells [4] amounted to 18900. For the same molecule, the “MKN45 5-day cytotoxicity (AUC), antibody conjugated to Compound A'” value with human CEACAM5 on cells [4] was 24100. The EC50 worked out at 2.1 nM with human CEACAM5 on cells [6], 1.5 nM in the experiment with human CEACAM5 on cells [7] and 1.9 nM with human CEACAM5 on cells [8]. Further, in experiment [9], the Kd was 5.26 nM. Besides, in experiment [9], the koff came out at 0.000228 s⁻¹. Besides, the kon in experiment [9] is 43300 M⁻¹ s⁻¹.

B4: Fab of bin 2 mAb (Fab, V domains shown)
VH: QVQLQESGPGLVKPSGTLSLTCAVSGGSISSSDWWSWVRQPPGKGLEWIGEIYHQGSTNYNPSLKSRVTISVDKSKNQFSLKLSSVTAADTAVYYCARASSSGYYGHDVWGQGTTVTVSS
VL: DIQLTQSPSFLSASVGDRVTITCRASQGISTYLAWYQQKPGKAPKFLIYAEKTLQSGVPSRFSGSGSGTEFTLTISSLQPEDFATYYCQQLASYPFTFGPGTKVDIKR
notes: also called anti-CEACAM5 bin2 mAb Fab
B4: in the experiment with 6xHis-A3-B3 huCEACAM5 [13], the binding result is “binds”.
